Patent publication EP4799649A1 (RemeGen Co., Ltd., dated 2026)

What was measured:
[1] = biological target: T1, Blys homotrimer (UniProt Q9Y275 134-285); assay: ELISA on Blys homotrimer
T1 construct: also called BAFF; B lymphocyte stimulator

[2] = biological target: T2, APRIL homotrimer (UniProt O75888 105-250, limits assumed); assay: ELISA on APRIL homotrimer
T2 construct: also called a proliferation-inducing ligand
T2 sequence (looked up): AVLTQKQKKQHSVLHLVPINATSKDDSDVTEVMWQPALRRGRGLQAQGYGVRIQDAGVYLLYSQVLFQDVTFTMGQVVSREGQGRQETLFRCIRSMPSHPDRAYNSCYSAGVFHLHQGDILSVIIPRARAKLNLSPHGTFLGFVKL

T1 sequence (Q9Y275 134-285 limits assumed): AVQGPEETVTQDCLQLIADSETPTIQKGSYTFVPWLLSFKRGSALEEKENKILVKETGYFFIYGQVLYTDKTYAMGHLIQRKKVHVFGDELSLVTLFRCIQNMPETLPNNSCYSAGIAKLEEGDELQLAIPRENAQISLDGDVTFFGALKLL

B1: povetacicept (Fc fusion)
chain: SLSCRKEQGEYYDHLLRDCISCASICGQHPKQCADFCENKLRSGSGGGGSEPKSSDKTHTCPPCPAPEAEGAPSVFLFPPKPKDTLMISRTPEVTCVVVDVSHEDPEVKFNWYVDGVEVHNAKTKPREEQYNSTYRVVSVLTVLHQDWLNGKEYKCKVSNKALPAPIEKTISKAKGQPREPQVYTLPPSRDELTKNQVSLTCLVKGFYPSDIAVEWESNGQPENNYKTTPPVLDSDGSFFLYSKLTVDKSRWQQGNVFSCSVMHEALHNHYTQKSLSLSPG
notes: Fc fusion protein of an engineered TACI domain
With B1 the EC50 [1] was 0.057 nM and the EC50 [2] was 0.128 nM.

B2: telitacicept (Fc fusion)
chain: SRVDQEERFPQGLWTGVAMRSCPEEQYWDPLLGTCMSCKTICNHQSQRTCAAFCRSLSCRKEQGKFYDHLLRDCISCASICGQHPKQCAYFCENKLRSPVNLPPELDKTHTCPPCPAPEAEGAPSVFLFPPKPKDTLMISRTPEVTCVVVDVSHEDPEVKFNWYVDGVEVHNAKTKPREEQYNSTYRVVSVLTVLHQDWLNGKEYKCKVSNKALPSSIEKTISKAKGQPREPQVYTLPPSRDELTKNQVSLTCLVKGFYPSDIAVEWESNGQPENNYKTTPPVLDSDGSFFLYSKLTVDKSRWQQGNVFSCSVMHEALHNHYTQKSLSLSPGK
notes: TACI-Fc fusion protein (truncated TACI plus optimized human IgG1 Fc); also called RC18; Tai'ai
B2 was tested, and the EC50 [1] was 0.219 nM and the EC50 [2] was 1.1 nM.
